Data published in patent EP4019090A1 (Numab Therapeutics AG, dated 2022).
Blank lines part the entries; values can stand above or below the binder they belong to.

Assays:
IL-4R on HEK-Blue cells [1] = biological target: T1, IL-4R on HEK-Blue cells (human, UniProt P24394 26-825); assay: cell-based or functional assay
T1 sequence (looked up): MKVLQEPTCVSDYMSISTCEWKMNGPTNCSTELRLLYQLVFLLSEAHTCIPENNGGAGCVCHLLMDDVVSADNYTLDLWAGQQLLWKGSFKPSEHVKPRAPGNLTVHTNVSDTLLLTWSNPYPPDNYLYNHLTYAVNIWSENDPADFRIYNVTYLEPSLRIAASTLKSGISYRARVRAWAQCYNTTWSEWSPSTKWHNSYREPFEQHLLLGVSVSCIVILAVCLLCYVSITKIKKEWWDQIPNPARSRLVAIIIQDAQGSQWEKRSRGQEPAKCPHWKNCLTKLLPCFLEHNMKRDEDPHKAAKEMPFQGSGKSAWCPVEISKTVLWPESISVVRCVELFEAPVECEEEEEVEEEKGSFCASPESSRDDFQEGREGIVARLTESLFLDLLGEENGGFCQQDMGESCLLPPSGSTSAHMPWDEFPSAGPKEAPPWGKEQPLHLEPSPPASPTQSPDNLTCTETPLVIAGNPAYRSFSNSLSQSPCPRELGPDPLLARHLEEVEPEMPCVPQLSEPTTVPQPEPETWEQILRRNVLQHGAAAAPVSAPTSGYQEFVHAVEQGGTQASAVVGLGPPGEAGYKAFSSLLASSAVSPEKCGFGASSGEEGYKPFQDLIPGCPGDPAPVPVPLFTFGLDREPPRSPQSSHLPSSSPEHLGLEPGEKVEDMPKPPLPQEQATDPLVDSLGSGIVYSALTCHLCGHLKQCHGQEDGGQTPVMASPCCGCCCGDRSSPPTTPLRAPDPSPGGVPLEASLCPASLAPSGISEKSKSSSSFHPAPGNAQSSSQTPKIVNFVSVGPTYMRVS

IL-4R on HEK-Blue cells [2] = biological target: T1, IL-4R on HEK-Blue cells; assay: cell-based or functional assay; remark: listed apart in the source
[3] = biological target: T2, recombinant human IL-4R protein (ECD with His Tag, Sino Biological) (human, UniProt P24394 26-232); assay: SPR (Biacore T200); antibody captured via anti-human IgG-Fc, human IL-4R ECD-His as analyte; 1:1 Langmuir
T2 construct: extracellular domain; also called human IL-4R ECD; not shown: His tag
T2 sequence (looked up): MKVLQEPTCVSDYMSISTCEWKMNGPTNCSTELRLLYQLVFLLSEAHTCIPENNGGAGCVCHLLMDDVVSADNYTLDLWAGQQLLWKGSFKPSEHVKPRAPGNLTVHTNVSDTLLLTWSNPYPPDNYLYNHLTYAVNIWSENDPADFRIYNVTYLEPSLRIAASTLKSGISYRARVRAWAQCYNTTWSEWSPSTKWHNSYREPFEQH

[4] = biological target: T3, recombinant cynomolgus monkey IL-4R (ECD with His-tag, Acro Biosystems) (cynomolgus monkey, UniProt A0A2K5V580 33-239); assay: SPR (Biacore T200); antibody captured via anti-human IgG-Fc, cynomolgus IL-4R ECD-His as analyte; 1:1 Langmuir
T3 construct: extracellular domain; also called cynomolgus IL-4R; not shown: His tag
T3 sequence: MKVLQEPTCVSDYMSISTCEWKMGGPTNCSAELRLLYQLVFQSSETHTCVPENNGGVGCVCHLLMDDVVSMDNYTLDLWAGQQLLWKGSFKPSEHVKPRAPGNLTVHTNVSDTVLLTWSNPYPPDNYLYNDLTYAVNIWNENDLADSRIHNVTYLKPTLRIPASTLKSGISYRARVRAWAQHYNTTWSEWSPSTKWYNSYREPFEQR

IL-4R on HEK-Blue cells [5] = biological target: T1, IL-4R on HEK-Blue cells; assay: cell-based or functional assay; remark: listed apart in the source

B3: PRO1517 (scFv)
chain: DIQMTQSPSSLSASVGDRVTITCQASEDIESYLAWYQQKPGKAPKLLIYRASTLAYGVPSRFSGSGSGTDFTLTISSLQPEDFATYYCLGSSYSTGSNIFGTGTKVTVLGGGGGSGGGGSGGGGSGGGGSEVQLVESGGGLVQPGGSLRLSCAASGFSSSSAHYMCWVRQAPGKGLEWIGCIYAGSRGSTYYASWAKGRFTISRDNSKNTVYLQMNSLRAEDTAVYYCARAAFVNRGVSWIWPYYFSLWGQGTLVTVSS
Neutralization of hIL-4-induced signaling in reporter gene assay: IC50 (IL-4R on HEK-Blue cells [5]): 1.44 ng/mL | Neutralization of hIL-13-induced signaling in reporter gene assay: IC50 (IL-4R on HEK-Blue cells [5]): 1.83 ng/mL

B4: PRO1535 (scFv)
chain: DIQMTQSPSSLSASVGDRVTITCQASEDIESYLAWYQQKPGKPPKLLIYRASTLAYGVPSRFSGSGSGTDFTLTISSLQPEDFATYYCLGSSYSTGSNIFGTGTKVTVLGGGGGSGGGGSGGGGSGGGGSESQLVESGGGLVQPGGSLRLSCAASGFSSSSAHYMCWVRQAPGKGLEWIACIYAGSRGSTYYASWAKGRFTISKDNSKNTVYLQMNSLRAEDTAVYFCARAAFVNRGVSWIWPYYFSLWGQGTLVTVSS
Neutralization of hIL-4-induced signaling in reporter gene assay: IC50 (IL-4R on HEK-Blue cells [5]): 1.15 ng/mL | Neutralization of hIL-13-induced signaling in reporter gene assay: IC50 (IL-4R on HEK-Blue cells [5]): 2.3 ng/mL

Second part, the binder after the results:

neutralize human IL-4-induced signaling in the stat-6 reporter gene assay: Mean IC50 [pM] (IL-4R on HEK-Blue cells [1]): 23.9 pM | neutralize human IL-13 induced signaling in the stat-6 reporter gene assay: Mean IC50 [pM] (IL-4R on HEK-Blue cells [2]): 22.1 pM
B1: PRO2198 (bispecific antibody)
chain 1: DIQMTQSPSSLSARVGDRVTITCQASEDIESYLAWYQQKPGKAPKLLIYRASTLAYGVPSRFSGSGSGRDFTLTISSLQPEDFATYYCLGSSYSTGSNIFGQGTKVEIKRTVAAPSVFIFPPSDEQLKSGTASVVCLLNNFYPREAKVQWKVDNALQSGNSQESVTEQDSKDSTYSLSSTLTLSKADYEKHKVYACEVTHQGLSSPVTKSFNRGEC
chain 2: not shown

neutralize human IL-4-induced signaling in the stat-6 reporter gene assay: Mean IC50 [pM] (IL-4R on HEK-Blue cells [1]): 11.5 pM | neutralize human IL-13 induced signaling in the stat-6 reporter gene assay: IC50 [pM] (single analysis) (IL-4R on HEK-Blue cells [2]): 11.3 pM | Kd [3]: 0.197 nM | koff [3]: 5.76e-05 s⁻¹ | kon [3]: 293000 M⁻¹ s⁻¹ | Kd [4]: 0.0351 nM | koff [4]: 3.44e-05 s⁻¹ | kon [4]: 980000 M⁻¹ s⁻¹
B2: PRO2199 (bispecific antibody)
chain 1: not shown
chain 2: DIQMTQSPSSLSASVGDRVTITCQASEDIESYLAWYQQKPGKAPKLLIYRASTLAYGVPSRFSGSGSGTDFTLTISSLQPEDFATYYCLGSSYSTGSNIFGQGTKVEIKRTVAAPSVFIFPPSDEQLKSGTASVVCLLNNFYPREAKVQWKVDNALQSGNSQESVTEQDSKDSTYSLSSTLTLSKADYEKHKVYACEVTHQGLSSPVTKSFNRGEC
